Values belong to the molecule of their own block, whether it stands above or below them. Ends that are not written are not given here. Peptide text beside a SMILES is read from it. * marks the point of attachment. X1 = CC[N+]1=C(C=CC=CC=C2N(CCCCCC(=O)*)c3ccc4c(S(=O)(=O)O)cc(S(=O)(=O)O)cc4c3C2(C)C)C(C)(C)c2c1ccc1c(S(=O)(=O)O)cc(S(=O)(=O)[O-])cc21
Assays:
DQ-gelatin from pig skin = assay: Enzymatic activity of recombinant MT1-MMP; format: biochemical; details: refolded recombinant catalytic domain; unit not given
Procedure: The MT1-MMP catalytic domain (20 kDa) was expressed in Escherichia coli (E. coli) as inclusion bodies. The activated form was produced through refold method. The recombinant human MT1-MMP catalytic domain was produced by E. coli BL21 that carried expression plasmids. The bacteria were grown to an optical density of 0.4 at 37 °C prior to induction. The overexpression of the protein of interest was induced by adding […] to a final concentration of 0.5 mM. Cultivation was proceeded for 4 h before the bacteria were broken by an ultrasonic wave. The inclusion bodies (proMT1-MMP) were solubilized and purified through his-tag affinity chromatography (General Electric, USA), as well as refolded by using dialysis bags to gradually reduce high denaturant concentrations in this process. […]
The protein samples from induced lysates, inclusion bodies and renaturation were separated by 15% reducing sodium dodecyl sulfate–polyacrylamide gel electrophoresis (SDS–PAGE) gel followed by Coomassie Brilliant Blue R-250 (CBB) staining. Protein concentration was measured at each step by the BCA Protein Assay Kit (Thermo Scientific, USA) according to manufacturer’s instructions. After renaturation of MT1-MMP, the enzymatic activity of the recombinant MT1-MMP was measured by using fluorescein conjugated substrate, DQ™-gelatin from pig skin (Molecular Probes).

[1] = test system: MDA-MB-435 tumors (MT1-MMP)
Procedure: The mice were injected with 1 nM Cy5.5-peptide to evaluate the distribution of affinity peptides in tumor tissues and major organs. At 4 h post-injection, the tumor-bearing mice were sacrificed, and their major organs, tissues, and tumors were harvested and placed on a black paper for ex vivo imaging (IVIS Lumina II, Caliper Life Sciences, MA, USA). The results were presented as the average scaled signal from the organs and the tumors.

MT1-MMP [2] = assay: AFM force curve measurement, peptide on tip against immobilized MT1-MMP; format: binding, human; details: 25 °C; for Binding force (peak position of force histogram): peptide on AFM tip via NHS-PEG18-aldehyde, MT1-MMP on APTES mica, PBS, 300 force curves, Gaussian fit
Procedure: The MT1-MMP catalytic domain (20 kDa) was expressed in Escherichia coli (E. coli) as inclusion bodies. The activated form was produced through refold method. The recombinant human MT1-MMP catalytic domain was produced by E. coli BL21 that carried expression plasmids. The bacteria were grown to an optical density of 0.4 at 37 °C prior to induction. The overexpression of the protein of interest was induced by adding […] to a final concentration of 0.5 mM. Cultivation was proceeded for 4 h before the bacteria were broken by an ultrasonic wave. The inclusion bodies (proMT1-MMP) were solubilized and purified through his-tag affinity chromatography (General Electric, USA), as well as refolded by using dialysis bags to gradually reduce high denaturant concentrations in this process. The refolding buffer included 50 mM HEPES, 10 mM CaCl2, 200 mM NaCl, 1 mM phenylmethylsulfonyl fluoride, 20 μM ZnCl2, 0.01% Brij-35, 5% Glycerol, 100 μg/ml DNase, at a pH 7.5.
The surface layer of the mica was stripped to expose the silanol group-coated surface. Then, the mica was treated with 3-aminopropyltriethoxysilane (APTES, vapor) for 1.5 h at room temperature and dried in vacuum. To immobilize the protein or the peptide, the activated mica surface was immerged into MT1-160p or MT1-MMP solution (300 µg/mL in PBS) for 15 min, rinsed and kept in PBS buffer.
AFM cantilever tips (MSCT) were purchased from Veeco (CA). The polypeptides were covalently immobilized on the tips by using chemical reactions as previously described. […]
The force curves were measured by using a PicoPSM 5500 instrument (Agilent Technologies, MA). […] The interaction force were detected at different points on the substrate. Over 1,000 force–distance cycles were collected, and a total of 300 force curves were recorded at different positions on the substrate. The average force values were summarized and calculated in the form of histograms and were expressed as a probability (%), which was obtained by dividing each count number by the total number of measured force curves.

[3] = test system: MDA-MB-435 tumors (MT1-MMP); assay: Whole-body small animal near-infrared fluorescence imaging
Procedure: (§1) All of the animal experiments were conducted in accordance with the principles and procedures outlined in the ethics committee of Jilin University, and approved by Animal Care and Use Committee (CC/ACUCC) of Xiamen University. Subcutaneous sites of athymic nude mice (BALB/c, 6 weeks old, female, 19–21 g) were injected with a suspension of 1 × 10^7 breast carcinoma MDA-MB-435 cells in PBS (100 μL). Tumor growth was assessed with caliper measurements every 2 days, and tumor size was determined using the formula: V = a^*(b^2)/2, where a is the maximum length and b is the maximum width of each tumor in mm respectively. The tumor-bearing mice (n = 5/group) were subjected to optical imaging experiments once the tumor volume (in the right front leg region) reached average size of 200 mm^3 (Error less than 18 mm^3), mice were randomly allocated into three groups: Cy5.5-MT1-AF7p-H4R, Cy5.5-MT1-AF7p-H4R-Block or Cy5.5-MT1-AF7p were injected via their tail vein with […]. Fluorescent images and analysis were performed by using an IVIS Lumina II imaging system (Caliper Life Sciences, MA, USA; Excitation Filter: 630 nm, Emission Filter: 700 nm) at different time point post-injection (1, 2, 4, 6, 12, and 24 h). During injection and image acquiring process, mice were anesthetized with 2.5% isoflurane in oxygen at a flow of 1.5 L/min. Images were normalized to the same scale and analyzed. For semi-quantitative comparison, the regions of interest (ROI) were drawn over the tissues of interest, and the scaled average signal (photons cm^−2 s^−1) for each area was measured. Fluorescent signals from ROI were further corrected by the mice body weights. Results were presented as the mean ± SD for a group of five animals.

[4] = as above; details: athymic nude BALB/c, mouse, in vivo, iv
Procedure: as §1

MT1-MMP [5] = assay: Isothermal titration calorimetry; parameters: species or system human; details: 25 °C; 10 mM HEPES, 150 mM NaCl, pH 7.4; 1000 rpm; one-site binding model
Procedure: The ITC experiments were conducted by using a MicroCal ITC-200 system (General Electric, USA) to determine the thermodynamic parameters of the polypeptides. The peptide of interest was dissolved in 10 mM HEPES and 150 mM NaCl solution at pH 7.4. All titrations were performed at 25 °C by injecting aliquots of a 40 μL MT1-160p (1 mM) degassed solution in a syringe into the calorimeter cell containing 200 μL of binding peptides (0.1 mM) degassed solution at a stirring rate of 1000 rpm. The baseline was corrected manually and the heat data were processed by fitting the ITC data into the NanoAnalyze software.

[6] = test system: MDA-MB-435 tumors (MT1-MMP); details: cited from earlier work
Procedure: Among the mutated peptides selected by virtual screening and docking based on the calculated lowest binding energy, the binding affinities were tested by conducting AFM, ITC, and cell fluorescence imaging in vitro. The tumor targeting effects of the optimal peptide were further confirmed by performing an in vivo imaging experiment in a tumor-bearing mice model.

Molecule: MT1-MMP: recombinant human MT1-MMP catalytic domain (20 kDa) refolded from E. coli inclusion bodies
Enzymatic activity against DQ-gelatin (DQ-gelatin from pig skin): 9.81 × 10^6

Molecule: CC[N+]1=C(C=CC=CC=C2N(CCCCCC(=O)N[C@@H](Cc3c[nH]cn3)C(=O)N[C@@H](Cc3c[nH]c4ccccc34)C(=O)N[C@@H](CCCCN)C(=O)N[C@@H](CCCNC(=N)N)C(=O)N[C@@H](CC(C)C)C(=O)N[C@@H](Cc3c[nH]cn3)C(=O)N[C@@H](CC(N)=O)C(=O)N[C@H](C(=O)N[C@@H](CCCCN)C(=O)N[C@H](C(=O)N[C@@H](Cc3ccccc3)C(=O)N[C@@H](CC(C)C)C(=O)O)[C@@H](C)O)[C@@H](C)O)c3ccc4c(S(=O)(=O)O)cc(S(=O)(=O)O)cc4c3C2(C)C)C(C)(C)c2c1ccc1c(S(=O)(=O)O)cc(S(=O)(=O)[O-])cc21 [Cy5.5-MT1-AF7p-H4R] (X1-HWKRLHNTKTFL-OH; C-terminus assumed)
Clearance route ([1]; 4 h post-injection, ex vivo quantification): prominent renal clearance
Tumor fluorescent signal ex vivo ([1]; 4 h post-injection, i.v. 1 nM Cy5.5-peptide, average scaled signal): 8.04 × 10^7
Tumor fluorescent signal relative to MT1-AF7p ([1]; 4 h post-injection, 8.04 × 10^7 vs. 2.51 × 10^7): 3.2 times
Fluorescent signals in blocking group ([1]; ex vivo, blocked with excess free MT1-AF7p-H4R): very few fluorescent signals were detected in the blocking group
Binding force (peak position of force histogram) (MT1-MMP [2]): 260 pN
Tumor signal after blocking with free peptide ([3]; excess free MT1-AF7p-H4R (1 μM) injected 30 min prior): Low Cy5.5-MT1-AF7p-H4R accumulation was observed
Time of maximum tumor accumulation (T/M) ([3]; i.v., MDA-MB-435 tumor): 4 h
tissue to tissue ratio at 1 h [4]: 1.22 ± 0.22
tissue to tissue ratio at 2 h [4]: 2.77 ± 0.31
tissue to tissue ratio at 4 h [4]: 4.26 ± 0.56
Binding constant (Ka) (MT1-MMP [5]): 175000 M⁻¹

Molecule: CC[N+]1=C(C=CC=CC=C2N(CCCCCC(=O)N[C@@H](Cc3c[nH]cn3)C(=O)N[C@@H](Cc3c[nH]c4ccccc34)C(=O)N[C@@H](CCCCN)C(=O)N[C@@H](Cc3c[nH]cn3)C(=O)N[C@@H](CC(C)C)C(=O)N[C@@H](Cc3c[nH]cn3)C(=O)N[C@@H](CC(N)=O)C(=O)N[C@H](C(=O)N[C@@H](CCCCN)C(=O)N[C@H](C(=O)N[C@@H](Cc3ccccc3)C(=O)N[C@@H](CC(C)C)C(=O)O)[C@@H](C)O)[C@@H](C)O)c3ccc4c(S(=O)(=O)O)cc(S(=O)(=O)O)cc4c3C2(C)C)C(C)(C)c2c1ccc1c(S(=O)(=O)O)cc(S(=O)(=O)[O-])cc21 [Cy5.5-MT1-AF7p] (X1-HWKHLHNTKTFL-OH; C-terminus assumed)
Tumor accumulation in MDA-MB-435 xenografts ([6]; compared with negative control): significantly higher tumor accumulation
Binding force (peak position of force histogram) (MT1-MMP [2]): 150 pN
tissue to tissue ratio at 4 h [4]: 1.98
Binding constant (Ka) (MT1-MMP [5]): 107000 M⁻¹

Molecule: HWKKLHNTKTFL [MT1-AF7p-H4K, MT1-AF7p with histidine 4 mutated to Lys]
Affinity to MT1-MMP by AFM (MT1-MMP [2]; single-molecule recognition force spectroscopy): had a nearly identical binding capacity with MT1-MMP than MT1-AF7P

Tumor imaging effect vs MT1-AF7p ([3]; i.v. tail vein, 10 μM (1 nM in 100 μL PBS), Cy5.5-labeled, p ≤ 0.01, n = 5/group): better than MT1-AF7p (p ≤ 0.01)
Molecule: HWKRLHNTKTFL [MT1-AF7p-H4R, HWKRLHNTKTFL]
Specificity and affinity to MT1-MMP in optical imaging in vivo ([3]; compared with MT1-AF7p): higher specificity and affinity to the receptor (MT1-MMP) in optical imaging in vivo
Fluorescence intensity in tumor site vs MT1-AF7p ([3]; i.v. tail vein, all time points from 2 h to 24 h, Cy5.5-labeled, n = 5/group): considerably stronger than that of MT1-AF7p at all the time points from 2 h to 24 h

Molecule: Cy5.5 [reference compound]
Tumor accumulation of free dye ([6]; within 48 h post-injection): did not accumulate in the tumor site within 48 h post-injection

Molecule: HWKHLHNTKTFL [MT1-AF7p]
Binding constant (Ka) (MT1-MMP [5]): 107000 M⁻¹

Source: paper PMC6037669, “Optimization of a MT1-MMP-targeting Peptide and Its Application in Near-infrared Fluorescence Tumor Imaging” (Scientific Reports, 2018)
